Source: patent US6995018

Target: human complement Factor H (human) (UniProt P08603)
Test: steady state fluorescence, titration of purified human Factor H with rOPN

Sequence of human complement Factor H (human) (P08603 19-1231 limits assumed): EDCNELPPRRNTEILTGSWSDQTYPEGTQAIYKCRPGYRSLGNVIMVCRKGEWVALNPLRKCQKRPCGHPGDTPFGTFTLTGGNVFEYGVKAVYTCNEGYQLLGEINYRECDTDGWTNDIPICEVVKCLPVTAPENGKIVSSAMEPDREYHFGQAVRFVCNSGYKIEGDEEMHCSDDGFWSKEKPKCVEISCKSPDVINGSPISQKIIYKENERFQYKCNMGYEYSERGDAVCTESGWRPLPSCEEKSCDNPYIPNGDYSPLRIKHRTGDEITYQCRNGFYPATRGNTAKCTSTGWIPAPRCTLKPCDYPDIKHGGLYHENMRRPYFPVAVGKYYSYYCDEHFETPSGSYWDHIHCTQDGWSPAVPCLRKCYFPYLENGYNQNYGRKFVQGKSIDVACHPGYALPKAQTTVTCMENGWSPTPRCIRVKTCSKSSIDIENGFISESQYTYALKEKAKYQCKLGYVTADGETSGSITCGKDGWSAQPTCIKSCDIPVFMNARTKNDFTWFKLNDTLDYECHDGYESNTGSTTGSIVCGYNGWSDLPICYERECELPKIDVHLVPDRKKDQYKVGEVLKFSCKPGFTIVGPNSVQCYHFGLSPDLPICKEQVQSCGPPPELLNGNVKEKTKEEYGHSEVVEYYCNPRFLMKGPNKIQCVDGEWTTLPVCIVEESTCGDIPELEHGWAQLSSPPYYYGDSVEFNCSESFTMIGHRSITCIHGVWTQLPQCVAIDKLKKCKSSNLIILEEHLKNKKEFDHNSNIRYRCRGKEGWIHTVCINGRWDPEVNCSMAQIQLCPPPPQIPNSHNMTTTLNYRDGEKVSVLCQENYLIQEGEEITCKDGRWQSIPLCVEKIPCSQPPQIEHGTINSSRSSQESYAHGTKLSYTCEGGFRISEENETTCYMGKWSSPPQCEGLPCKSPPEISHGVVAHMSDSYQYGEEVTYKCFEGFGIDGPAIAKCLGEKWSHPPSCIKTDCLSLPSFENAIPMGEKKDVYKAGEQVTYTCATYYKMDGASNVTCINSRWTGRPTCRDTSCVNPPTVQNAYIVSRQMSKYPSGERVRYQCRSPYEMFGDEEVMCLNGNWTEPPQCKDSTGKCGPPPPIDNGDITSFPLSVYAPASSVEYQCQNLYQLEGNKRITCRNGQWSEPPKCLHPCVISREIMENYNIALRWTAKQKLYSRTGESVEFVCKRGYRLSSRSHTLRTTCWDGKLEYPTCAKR

- stoichiometry (OPN:Factor H): 1 mol/mol
Substance: recombinant osteopontin (rOPN) (from UniProt P10451 17-300) (ligand)
